Measured values taken from the supplement of paper PMC9112550, “Optimization of the antimicrobial peptide Bac7 by deep mutational scanning” (BMC Biology, 2022).

What follows are sequences tested on Escherichia coli TOP10 (assay: shrunken log2 fold change of peptide-encoding DNA abundance (4.5 h post-induction vs induction); higher = less antimicrobial activity (less host growth inhibition)). Conditions: time post-induction: 4.5 h; library: site-saturation at positions 5, 18, 19, 20.
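Note: peptides expressed intracellularly from a pBAD plasmid library in pooled LB shake-flask culture, induced with 0.3% L-arabinose, DNA abundance read by NGS, three biological replicates, DESeq2 with apeglm shrinkage.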

Row | Sequence | shrunken log2 fold change
1 | RRIRIRPPRLPRPRPRPLRWPRP | 1.02
2 | RRIRIRPPRLPRPRPRPLSHPRP | -0.0521
3 | RRIRIRPPRLPRPRPRPLSRPRP | -0.243
4 | RRIRIRPPRLPRPRPRPLTPPRP | -0.284
5 | RRIRIRPPRLPRPRPRPLYKPRP | -0.622
6 | RRIRIRPPRLPRPRPRPMAHPRP | -0.0137
7 | RRIRIRPPRLPRPRPRPMENPRP | 0.0119
8 | RRIRIRPPRLPRPRPRPMEPPRP | -0.101
9 | RRIRIRPPRLPRPRPRPMEYPRP | -0.395
10 | RRIRIRPPRLPRPRPRPMGCPRP | 0.00177
11 | RRIRIRPPRLPRPRPRPMINPRP | -0.714
12 | RRIRIRPPRLPRPRPRPMIPPRP | 1.87
13 | RRIRIRPPRLPRPRPRPMKEPRP | 0.116
14 | RRIRIRPPRLPRPRPRPMKVPRP | -0.00968
15 | RRIRIRPPRLPRPRPRPMLMPRP | -0.515
16 | RRIRIRPPRLPRPRPRPMMKPRP | -0.166
17 | RRIRIRPPRLPRPRPRPMNRPRP | -0.108
18 | RRIRIRPPRLPRPRPRPMQRPRP | -0.129
19 | RRIRIRPPRLPRPRPRPMRRPRP | 0.0307
20 | RRIRIRPPRLPRPRPRPMSIPRP | -0.0563
21 | RRIRIRPPRLPRPRPRPMTNPRP | -0.108
22 | RRIRIRPPRLPRPRPRPMTRPRP | -0.0885
23 | RRIRIRPPRLPRPRPRPMWHPRP | -0.176
24 | RRIRIRPPRLPRPRPRPMYSPRP | -0.11
25 | RRIRIRPPRLPRPRPRPNANPRP | -0.252

Row | Sequence | shrunken log2 fold change
26 | RRIRIRPPRLPRPRPRPNDEPRP | -0.781
27 | RRIRIRPPRLPRPRPRPNDGPRP | -0.483
28 | RRIRIRPPRLPRPRPRPNENPRP | -0.59
29 | RRIRIRPPRLPRPRPRPNEPPRP | -0.0172
30 | RRIRIRPPRLPRPRPRPNERPRP | -0.319
31 | RRIRIRPPRLPRPRPRPNFPPRP | -0.144
32 | RRIRIRPPRLPRPRPRPNFVPRP | 0.0196
33 | RRIRIRPPRLPRPRPRPNGCPRP | -0.0792
34 | RRIRIRPPRLPRPRPRPNGGPRP | -0.108
35 | RRIRIRPPRLPRPRPRPNHCPRP | -0.937
36 | RRIRIRPPRLPRPRPRPNHFPRP | -0.694
37 | RRIRIRPPRLPRPRPRPNHPPRP | -0.469
38 | RRIRIRPPRLPRPRPRPNIKPRP | -1.05
39 | RRIRIRPPRLPRPRPRPNIYPRP | -0.111
40 | RRIRIRPPRLPRPRPRPNKRPRP | -0.368
41 | RRIRIRPPRLPRPRPRPNLYPRP | -0.565
42 | RRIRIRPPRLPRPRPRPNMYPRP | -0.59
43 | RRIRIRPPRLPRPRPRPNNHPRP | -1.03
44 | RRIRIRPPRLPRPRPRPNNIPRP | -0.937
45 | RRIRIRPPRLPRPRPRPNPEPRP | -0.0503
46 | RRIRIRPPRLPRPRPRPNQDPRP | -0.507
47 | RRIRIRPPRLPRPRPRPNQQPRP | 0.0352
48 | RRIRIRPPRLPRPRPRPNSCPRP | -0.184
49 | RRIRIRPPRLPRPRPRPNSHPRP | -0.866
50 | RRIRIRPPRLPRPRPRPNSIPRP | -0.366

Row | Sequence | shrunken log2 fold change
51 | RRIRIRPPRLPRPRPRPNTAPRP | -0.0523
52 | RRIRIRPPRLPRPRPRPNVNPRP | -0.594
53 | RRIRIRPPRLPRPRPRPNWDPRP | -0.0401
54 | RRIRIRPPRLPRPRPRPNYKPRP | -0.911
55 | RRIRIRPPRLPRPRPRPNYYPRP | -1.07
56 | RRIRIRPPRLPRPRPRPPAMPRP | 1.68
57 | RRIRIRPPRLPRPRPRPPCFPRP | -0.11
58 | RRIRIRPPRLPRPRPRPPEQPRP | 0.118
59 | RRIRIRPPRLPRPRPRPPETPRP | 0.246
60 | RRIRIRPPRLPRPRPRPPGAPRP | 0.431
61 | RRIRIRPPRLPRPRPRPPGIPRP | -0.147
62 | RRIRIRPPRLPRPRPRPPGLPRP | 0.204
63 | RRIRIRPPRLPRPRPRPPIEPRP | 0.0545
64 | RRIRIRPPRLPRPRPRPPIYPRP | -0.592
65 | RRIRIRPPRLPRPRPRPPKEPRP | -0.0998
66 | RRIRIRPPRLPRPRPRPPKTPRP | -0.00537
67 | RRIRIRPPRLPRPRPRPPLHPRP | 0.0232
68 | RRIRIRPPRLPRPRPRPPMHPRP | -0.0688
69 | RRIRIRPPRLPRPRPRPPMKPRP | -0.789
70 | RRIRIRPPRLPRPRPRPPMTPRP | -0.0813
71 | RRIRIRPPRLPRPRPRPPNLPRP | -0.188
72 | RRIRIRPPRLPRPRPRPPQCPRP | -0.244
73 | RRIRIRPPRLPRPRPRPPQMPRP | -0.0135
74 | RRIRIRPPRLPRPRPRPPRIPRP | 0.333
75 | RRIRIRPPRLPRPRPRPPRQPRP | 0.337
